Target: His6-Rv3208 (FasR from M. tuberculosis) (M. tuberculosis H37Rv)
Assay: SEC

**Q.** For “His6-Rv3208 (FasR from M. tuberculosis) (natural protein)”, which stoichiometry N is on record?
**A.** The stoichiometry N was 2.

Reference: article PMC3752660
